Values of other authors in article PMC6731456.

Target: Apelin receptor (Homo sapiens) (UniProt P35414)
Sequence of UniProt P35414 (P35414 whole entry): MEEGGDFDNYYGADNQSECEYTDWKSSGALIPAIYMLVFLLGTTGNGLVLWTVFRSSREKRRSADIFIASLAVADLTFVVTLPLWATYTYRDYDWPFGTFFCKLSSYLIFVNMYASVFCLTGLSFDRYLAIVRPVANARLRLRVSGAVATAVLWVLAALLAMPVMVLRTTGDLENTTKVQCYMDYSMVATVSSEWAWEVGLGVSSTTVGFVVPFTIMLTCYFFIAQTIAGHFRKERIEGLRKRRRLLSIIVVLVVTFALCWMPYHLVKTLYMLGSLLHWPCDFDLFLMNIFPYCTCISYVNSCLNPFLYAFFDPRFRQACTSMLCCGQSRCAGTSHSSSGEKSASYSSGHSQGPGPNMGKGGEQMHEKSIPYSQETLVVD

Ki: 390 nM
Substance: Protamine (from UniProt P69014)
